US20230218738A1 (Pfizer, published 2023)
Where a chain is given by its changes, count along the chain named.

T1: RSV F protein mutant pXCS752 (RSV A2, UniProt P03420 26-109)
T1 chain 1: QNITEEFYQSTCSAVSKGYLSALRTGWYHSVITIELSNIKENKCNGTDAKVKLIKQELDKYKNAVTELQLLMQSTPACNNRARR
T1 chain 2: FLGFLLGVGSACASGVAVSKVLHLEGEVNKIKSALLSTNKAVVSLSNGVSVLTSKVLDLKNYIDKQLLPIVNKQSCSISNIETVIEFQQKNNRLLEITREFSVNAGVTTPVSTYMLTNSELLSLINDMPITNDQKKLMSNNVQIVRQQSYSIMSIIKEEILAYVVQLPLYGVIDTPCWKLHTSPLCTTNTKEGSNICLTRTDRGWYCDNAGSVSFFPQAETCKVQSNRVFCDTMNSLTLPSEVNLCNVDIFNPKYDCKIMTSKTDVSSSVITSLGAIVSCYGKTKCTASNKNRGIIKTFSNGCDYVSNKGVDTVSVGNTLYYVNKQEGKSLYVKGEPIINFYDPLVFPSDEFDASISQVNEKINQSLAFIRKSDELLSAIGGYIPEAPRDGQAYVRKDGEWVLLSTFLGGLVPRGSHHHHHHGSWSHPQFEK

T2: RSV F protein mutant pXCS774 (RSV A2, UniProt P03420 26-109)
T2 chain 1: T1 chain 1
T2 chain 2: T1 chain 2 with D350S, E351Q, D353S

T3: RSV F protein mutant pXCS852 (RSV A2, UniProt P03420 26-109)
T3 chain 1: T1 chain 1 with S30C, C78T
T3 chain 2: T1 chain 2 with C12I, L52C, I160V, D350S

T4: RSV F protein mutant pXCS886 (RSV A2, UniProt P03420 26-109)
T4 chain 1: T1 chain 1
T4 chain 2: T1 chain 2 with S54I, I160V, D350S, E351Q, D353S

T5: RSV F protein mutant pXCS734 (RSV A2, UniProt P03420 26-109)
T5 chain 1: T1 chain 1 with S30C, C78T
T5 chain 2: T1 chain 2 with L6C, C12I, L52C, I160V, N235C

B1: AM22 (antibody, V domains shown)
VH: QVQLVQSGAEVKKPGATVKVSCKISGHTLIKLSIHWVRQAPGKGLEWMGGYEGEVDEIFYAQKFQHRLTVIADTATDTVYMELGRLTSDDTAVYFCGTLGVTVTEAGLGIDDYWGQGTLVTVSS
VL: EIVLTQSPGTLSLSPGERATLSCRASQIVSRNHLAWYQQKPGQAPRLLIFGASSRATGIPVRFSGSGSGTDFTLTINGLAPEDFAVYYCLSSDSSIFTFGPGTKVDFK
B2: MPE8 (antibody, V domains shown)
VH: EVQLVESGGGLVKPGGSLRLSCAASGFTFSSYSMNWVRQAPGKGLEWVSSISASSSYSDYADSAKGRFTISRDNAKTSLFLQMNSLRAEDTAIYFCARARATGYSSITPYFDIWGQGTLVTVSS
VL: QSVVTQTPSVSGAPGQRVTISCTGSSSNIGAGYDVHWYQQLPGTAPKLLIYDNNNRPSGVPDRFSASKSGTSASLAITGLQAEDEADYYCQSYDRNLSGVFGTGTKVTVL
notes: also called MPEG

Legend:
Experiment in all cases: BLI (Octet), F on anti-HIS tip, 20 nM mAb
[1] = target: T1, RSV F protein mutant pXCS752
[2] = target: RSV F protein mutant pXCS754 (RSV A2, UniProt P03420 26-109)
[3] = target: T2, RSV F protein mutant pXCS774
[4] = target: RSV F protein mutant pXCS777 (RSV A2, UniProt P03420 26-109)
[5] = target: RSV F protein mutant pXCS780 (RSV A2, UniProt P03420 26-109)
[6] = target: T3, RSV F protein mutant pXCS852
[7] = target: T4, RSV F protein mutant pXCS886
[8] = target: T5, RSV F protein mutant pXCS734

| Binder | Response (nm shift) [1] [nm] | Response (nm shift) [2] [nm] | Response (nm shift) [3] [nm] | Response (nm shift) [4] [nm] | Response (nm shift) [5] [nm] | Response (nm shift) [6] [nm] | Response (nm shift) [7] [nm] | Response (nm shift) [8] [nm] |
| --- | --- | --- | --- | --- | --- | --- | --- | --- |
| B1 | 0.234 | 0.298 | 0.34 | 0.121 | 0.29 | 0.565 | 0.443 | 0.284 |
| B2 | 0.703 | 0.676 | 0.795 | 0.27 | 0.608 | 1.13 | 0.863 | 0.818 |
